# Reference: patent publication US20200206312A1
# Several values for one entry are separate records, joined by “and”; a condition that tells them apart may be missing. Equal entries are not always repeated. Where two headings read alike, the source gives them in different places. Bridge positions count the residues as written; N and C are the ends. Ends that are not written are not given here. * marks the point of attachment. Biotin = O=C1N[C@H]2[C@H](CS[C@H]2CCCCC(=O)*)N1; Capped = not defined here
# B1: tri-peptide 1/2/3 from trypsin digestion of Lys-27 biotinylated TM601 (UM-1438-118) (peptide)
# chain 1: MCMPCFTTDHQMAR
# chain 2: GKCYGPQCLCR
# chain 3: KCDDCCGGK
# modifications: not fully specified; modifications not checked
# B2: NH2(Biotin)-C(Capped)-Y-G-P-Q-C(Capped)-L-C(Capped)-R-COOH (peptide)
# peptide: Biotin-C(Capped)YGPQC(Capped)LC(Capped)R-OH
# modifications: reading uncertain; also: printed as NH2(Biotin)-C(Capped)-Y-G-P-Q-C(Capped)-L-C(Capped)-R-COOH
# B3: NH2(Biotin)-Y-G-P-Q-C(Capped)-L-C(Capped)-R-COOH (peptide)
# peptide: Biotin-YGPQC(Capped)LC(Capped)R-OH
# modifications: reading uncertain; also: printed as NH2(Biotin)-Y-G-P-Q-C(Capped)-L-C(Capped)-R-COOH
# B4: tri-peptide 1/2/3 from trypsin digestion of N-terminal biotinylated TM601 (UM-1438-127-1) (peptide)
# chain 1: MCMPCFTTDHQMAR
# chain 2: CYGPQCLCR
# chain 3: KCDDCCGGK
# modifications: not fully specified (N-terminus); cysteine pairing not given here
# Key:
# [1] = biological target: T1, Recombinant human NRP1 with His Tag (Sino Biological Inc.; Cat #1001-H08H) (human), O14786
# T1 sequence (O14786 other isoform, or with tags, fused parts or gaps H08H H08H limits assumed): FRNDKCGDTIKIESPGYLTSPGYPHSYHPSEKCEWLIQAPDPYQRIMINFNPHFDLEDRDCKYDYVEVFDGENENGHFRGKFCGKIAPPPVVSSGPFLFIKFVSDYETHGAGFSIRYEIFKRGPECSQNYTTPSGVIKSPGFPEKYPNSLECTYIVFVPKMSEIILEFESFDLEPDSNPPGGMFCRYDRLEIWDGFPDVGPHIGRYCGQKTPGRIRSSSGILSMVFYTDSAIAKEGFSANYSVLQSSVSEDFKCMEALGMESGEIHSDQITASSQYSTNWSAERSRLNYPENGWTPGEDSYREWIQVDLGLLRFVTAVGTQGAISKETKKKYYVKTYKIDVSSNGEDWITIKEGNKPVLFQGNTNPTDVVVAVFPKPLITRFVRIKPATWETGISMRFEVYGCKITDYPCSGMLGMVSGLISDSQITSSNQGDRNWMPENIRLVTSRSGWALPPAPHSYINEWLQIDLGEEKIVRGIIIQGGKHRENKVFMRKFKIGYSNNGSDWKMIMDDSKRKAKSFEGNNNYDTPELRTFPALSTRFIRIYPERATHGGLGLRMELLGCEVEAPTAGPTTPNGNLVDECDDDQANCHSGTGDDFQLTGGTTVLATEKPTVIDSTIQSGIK
# [2] = biological target: T1, Recombinant human NRP1 with His Tag …; remark: listed apart in the source
# [3] = biological target: T1, Recombinant human NRP1 with His Tag …; remark: listed apart in the source
# [4] = biological target: T1, Recombinant human NRP1 with His Tag …; experiment: BLI (Octet Red96), biotinylated peptide on streptavidin sensor, NRP1 in solution
Binder,Kd [1],Kd [3],other results
B1,112 nM and 187 nM,,
B2,,,Kd [2]: 153 nM and 335 nM
Biotin-CYGPQCLC(Capped)R-OH (disulfide 1-6; reading uncertain) [NH2(Biotin)-C-Y-G-P-Q-C-L-C(Capped)-R-COOH with S-S between the first two C],,410 nM,
B3,,300 nM and 294 nM,
Biotin-C(Capped)LC(Capped)R-OH (reading uncertain; also: printed as NH2(Biotin)-C(Capped)-L-C(Capped)-R-COOH) [NH2(Biotin)-C(Capped)-L-C(Capped)-R-COOH],,,Kd [4]: 335 nM
B4,173 nM and 70 nM,,
